Experimental data reported in US10736971B2, “Peptide-based molecules for modulating car expression or accessibility and uses thereof” (Wright State University, priority 2015, dated 2020).

System: AdV-β-Gal
Assay: AdV-β-Gal transduction of transfected CAR-deficient CHO-K1 cells
Type: cell-based, Chinese hamster
Details: CHO-K1 transfected with CAR^Ex8, MAGI-1 and PDZ domain plasmids, MOI 100
Text: CAR-deficient CHO-K1 cells were A) single, B) double, or C) triple transfected with plasmids encoding CAR^Ex8, MAGI-1 (black bars), PDZ1 domain (dotted bars), or PDZ3 domain (white bars), and balanced with empty pcDNA3.1 plasmid, followed by AdV-β-Gal (MOI 100) transduction. CHO-K1 cells were double transfected with CAR^Ex8 and pcDNA3.1, MAGI-1, PDZ3, or PDZ1 and analyzed for D) total CAR^Ex8 protein or E) cell-surface biotinylated CAR^Ex8 protein expression. Quantification of at least three individual experiments is shown in all bar graphs. *p<0.05.

B1: PDZ1 domain: MAGI-1 PDZ1 decoy domain, expressed from transfected plasmid in CHO-K1 cells (protein)
chain: RKSSRGFGFTVVGGDEPDEFLQIKSLVLDGPAALDGKMETGDVIVSVNDTCVLGHTHAQVVKIFQSIP
modifications: PEPTIDE WILL BE CREATED USING CONVENTIONAL MEANS
notes: MAGI-1 PDZ1 decoy domain, expressed from transfected plasmid in CHO-K1 cells
  Adenovirus infection (AdV-β-Gal transduction): inhibits MAGI-1-mediated CAR^Ex8 suppression to allow adenovirus infection

B2: MAGI-1 PDZ3 domain: MAGI-1 PDZ3 decoy domain, expressed from transfected plasmid in CHO-K1 cells (protein)
chain: KETGFGFRILGGNEPGEPIYIGHIVPLGAADTDGRLRSGDELICVDGTPVIGKSHQLVVQLMQQAAKQGHVNLTVR
modifications: PEPTIDE WILL BE CREATED USING CONVENTIONAL MEANS
notes: MAGI-1 PDZ3 decoy domain, expressed from transfected plasmid in CHO-K1 cells
  Adenovirus infection (AdV-β-Gal transduction): decreases
